Test results reported in patent US12551573B2, “Compositions and methods for the targeting of PCSK9” (Scribe Therapeutics Inc., priority 2022, dated 2026).
Substitutions are numbered along the chain they refer to.

B1: DOMAIN_28823 (protein)
chain: QVPVTFEDITVYFSREQWEYLDEGQKELYREVMKENYETLISLGTGPEGFNPEVLARIKLEEESHVWDPKEPGQKEVTRSY
modifications: Microcaecilia unicolor
B2: DOMAIN_26463 (protein, listed as Pelodiscus sinensis)
chain: DSMRVTFEEVAVYFTPGQGALLGPAQRALYRDVMQENYEAVTSLGFPVPKPELIARLERGEEPWVPDLQAREEREIPRGTC
B3: DOMAIN_29434 (protein, listed as Mus caroli)
chain: MTYDDVHVNFTGEEWALLSPSQKRLYKDVMLETYRNLTAIGYNWEDHNSEHFQHSRRHGRHERRHTGEKPSVYTQCGKVFAYH
B4: DOMAIN_29900 (protein)
chain: VAFEDVAVNFTQEEWALLNSSQKNLYREVMQETCRNLASVGSKWKDQNIEDHFEKPGKNIRKHMVQKLCESKEGSQYGEVVSQIPNL
modifications: Nomascus leucogenys
B5: DOMAIN_27566 (protein)
chain: QLTFEDVALSFSKEEWQIMDPNQKTLYIDVMREIYETVTSLGLKLKNDTGNDQPVSLSTSEIQPSGCKVLRKARMKVAQTT
modifications: Muntiacus muntjak
B6: DOMAIN_28158 (protein, listed as Odocoileus virginianus)
chain: B5 chain with R32Q
B7: DOMAIN_29066 (protein, listed as Xenopus tropicalis)
chain: VKFDEVAVVFSEDEWNLLTDQQRGLYMEVMKENYEHLIYLGFEVPVILSLLQDGGGIGSDTVTQSKSQQVAGAEESKSSVTLEGPIPETLPS
B8: DOMAIN_26886 (protein, listed as Homo sapiens)
chain: QLQETMTFKDVEVTFSQDEWGWLDSAQRNLYRDVMLENYRNMASLVGPFTKPALISWLEAREPWGLNMQAAQPKGNPVAAP
B9: DOMAIN_26496 (protein, listed as Geotrypetes seraphini)
chain: QMPVKFEDIAVSFSQEEWEYLDEEQKELYREVMKENYQTLISLGTGSPSITPDIISHIERGEEPYIREEPGSEEREPGRSS
B10: DOMAIN_26501 (protein, listed as Geotrypetes seraphini)
chain: AQVPVTFEDIAVYFSQEEWEDLEEQQRELYKDVMKENYETLSSLGPPAVTPDIISHIERGEEPYIRFESGPEEREIGKSSC
B11: DOMAIN_27579 (protein)
chain: SQELLTFKDISVDFTQEEWGQLAPAHRNLYREVMLENYGNLVSVAGCQLSKPSVISQLEKGEEPWMTEKEGPGDPSSDLKS
modifications: Muntiacus muntjak
B12: DOMAIN_28085 (protein, listed as Enhydra lutris)
chain: B11 chain with A23P, P24L, C47Y, E62Q, G71V, G73E, K80R, S81T
B13: DOMAIN_27902 (protein)
chain: B11 chain with I10V, A23S, P24L, C47Y, E62Q, E70K, S77P, S81N
modifications: Vulpes vulpes
B14: DOMAIN_28051 (protein, listed as Neomonachus schauinslandi)
chain: B11 chain with E3G, C47Y, E62Q, P75S, S81N
B15: DOMAIN_26999 (protein, listed as Xenopus laevis)
chain: AQDPVTFDDISVYFSRDEWALLDAGQKQLYREVMAENYRALVSVGYVMEEPGLVSHIEHEQQGSPIRSRSSLHAGRHCGFI
B16: DOMAIN_31340 (protein, listed as Homo sapiens)
chain: LTFEDVAVYFSEEEWQLLNPLEKTLYNDVMQDIYETVISLGLKLKNDTGNDHPISVSTSEIQTSGCEVSKKTRMKIAQKTMGRE
B17: DOMAIN_26925 (protein, listed as Alligator sinensis)
chain: PETVVSFEDVAVRFSPDEWHLLDDGQRRLYRDVLRENYSHVRSLGFPVPDLAVIFRMERGEEPWPPGLPAGTKSDDQEEER
B18: DOMAIN_27032 (protein, listed as Alligator mississippiensis)
chain: B17 chain with T72E, K73W, S74P, D75W, D76G, E78G, E79Q, E80A, R81P
B19: DOMAIN_26407 (protein, listed as Colinus virginianus)
chain: PSVPVTFRDVFVQFSRDEWALLDDEQKELHQSVMQSNYEMLMSLYCDLAKPEVSLQMERGEPCLPAEPDLQGTAVSLNPAA
B20: DOMAIN_26044 (protein, listed as Geotrypetes seraphini)
chain: QMRLRFEDISVSFSQEEWAYLDEEQKELYREVMRDNYQTLISLGIGSPPVTPDIISCIEQGEEPYIRDEPGSEERKTGRSS
B21: DOMAIN_26012 (protein, listed as Geotrypetes seraphini)
chain: QMQVKFEDIAISFSQEEWEYLNEEQKELYREVMEENYQTLLSLATDSPTFTPKIISYIKRGEEPYIRGEPDSEERESGKSS
B22: DOMAIN_25973 (protein, listed as Geotrypetes seraphini)
chain: ARAPVSFEEVAVYFSPEEWQTLQGWQKEMYRGVMRENYEIMLSLGYQFSKPEILLMMERGEEPCVEDCQRRIPVTFREKHL
B23: DOMAIN_26134 (protein, listed as Geotrypetes seraphini)
chain: AQVPVTFEDIAIYFSQEEWEYLDEGQKALYREVMKENYETLLLLGCPGLKPVIISSIEQGEEPCVRKLQERAELYPTAGDE
B24: DOMAIN_25686 (protein, listed as Panthera pardus)
chain: PRVSLTFEDVAVLFTRDEWRKLGPSERNLYQDVMLENYSNLVSLGLLFSKPKVISLLQQGEDPWKVEKESPGGPSLGYKSS
B25: DOMAIN_26292 (protein, listed as Geotrypetes seraphini)
chain: QMQVTFEEVAISFSQEEWEYLDEEQKELYREVMKENYQTLISLATGSPTVTPKIIAHIERGEEPYIRGEPGSEERETGNSS
B26: DOMAIN_25996 (protein, listed as Geotrypetes seraphini)
chain: B9 chain with D22N, K34E, S49P, E76G, G78V
B27: DOMAIN_26180 (protein, listed as Geotrypetes seraphini)
chain: B9 chain with D22N, K34E, T45I, I50V, R60G
B28: DOMAIN_26306 (protein, listed as Geotrypetes seraphini)
chain: B9 chain with V4I, D22N, S49P, I50V
B29: DOMAIN_26268 (protein, listed as Geotrypetes seraphini)
chain: VARMQTRVTFDDIAVSFSQEEWEYLDEGQKELYREVMEENLELLTSLGSLVAQPEQMEELYMMDHHDMGLRGTLLSLCTED
B30: DOMAIN_26177 (protein, listed as Geotrypetes seraphini)
chain: ASAQVTFEDIAVSFCHEEWRYLDEGQKELYKEVMKENYETLISLGFLCEKPSLISKIEQEEDPCVRDQQNSRERRRRLKNF
B31: DOMAIN_26299 (protein, listed as Geotrypetes seraphini)
chain: QIPVIFEDIVIYFSQEEWKDLEEWQKELYKDVMKENYQTLISLGTGFPTPPPDIISHIERGEEPYIRDELESEKRETGKRG
B32: DOMAIN_26305 (protein, listed as Geotrypetes seraphini)
chain: QQMQVTFEDVAVSFSQEEWEYLDEGQKELYREVMKENYETVVSLGSPASTPKIISCIECGEEAYIRGEPGSEGRETGKSSC
B33: DOMAIN_26131 (protein, listed as Geotrypetes seraphini)
chain: AQMPVKFEDIAVSFSQEEWEYLNEEQKELYREVMEENYQTLISLGSPPVTPDIISHIERGEEPYIREEPGSEEREPGRSSC
B34: DOMAIN_26103 (protein, listed as Geotrypetes seraphini)
chain: EMRVMFEEITVSFSQEEWEYLDEGQKELYQEVMKENHETLIFLETNLQFVNPDMLSKIRRDSRMSRKRKATRSYAADDEAK
B35: DOMAIN_938 (protein, listed as Pan paniscus)
chain: MPANEDAPQPGEHGSACEVSVSFEDVTVDFSREEWQQLDSTQRRLYQDVMLENYSHLLSVGFEVPKPEVIFKLEQGEGPWT
B36: DOMAIN_980 (protein)
chain: MPLKAQYQEMVTFEDVAVHFTKTEWTGLSPAQRALYRSVMLENFGNLTALGYPVPKPALISLLEGGDMAWGLEAQDDPPAE
modifications: Pan troglodytes

tested on: HBEGF locus; format: cell-based, human; conditions: fold change in abundance of each repressor domain in the dXR library before vs after diphtheria toxin selection; dXR repression of the HBEGF gene; domains meeting p-value <0.01 and log2(fold change) >2

First: B1
Second: B2
The “Log2 (fold change)” value of the first is lower: 2.331 for the first, 2.8812 for the second.

B3 and B4 are within 0.2 log units of each other in “Log2 (fold change)” value: 2.2707 for the first, 2.1583 for the second.

First: B5
Second: B6
The “Log2 (fold change)” value of the first is lower: 2.7825 for the first, 3.0762 for the second.

Going from B7 to B8, the “Log2 (fold change)” value rises from 2.6393 to 3.3209.

B9 and B10 are within 0.2 log units of each other in “Log2 (fold change)” value: 2.7991 for the first, 2.6513 for the second.

Compared with B11, B12 is lower in “Log2 (fold change)” value: 3.8878 for the first, 2.2962 for the second.

Going from B13 to B14, the “Log2 (fold change)” value falls from 2.9068 to 2.4353.

Compared with B15, B16 is lower in “Log2 (fold change)” value: 3.4317 for the first, 2.8261 for the second.

Going from B17 to B18, the “Log2 (fold change)” value rises from 3.2248 to 3.4805.

same assay, conditions: high-throughput screen of dXR repression of the HBEGF gene; abundance of each domain in the library before vs after diphtheria toxin selection; listed domains met p-value <0.01 and log2(fold change) >2

B19 and B20 are within 0.2 log units of each other in “Log2 (fold change)” value: 2.9778 for the first, 2.8874 for the second.

First: B21
Second: B22
The “Log2 (fold change)” value of the first is lower: 2.3532 for the first, 2.7804 for the second.

Going from B23 to B24, the “Log2 (fold change)” value rises from 2.4433 to 2.8635.

Going from B25 to B26, the “Log2 (fold change)” value rises from 2.4722 to 3.984.

Compared with B27, B28 is lower in “Log2 (fold change)” value: 3.4522 for the first, 2.6178 for the second.

Compared with B29, B30 is higher in “Log2 (fold change)” value: 2.1404 for the first, 3.4467 for the second.

Going from B31 to B32, the “Log2 (fold change)” value rises from 2.3704 to 3.0107.

B33 and B34 are within 0.2 log units of each other in “Log2 (fold change)” value: 2.4087 for the first, 2.5308 for the second.

same assay, conditions: high-throughput screen of dXR repression of the HBEGF gene; change in abundance of each domain in the library before and after diphtheria toxin selection

Going from B35 to B36, the “Log2 (fold change)” value rises from 2.2926 to 2.9297.
